The text below walks through data of the supplement of paper PMC5998384.

The subject of series [1] is HeLa Kyoto. The series can be described thus: solubility in G1/S (NP-40 vs SDS abundance) (log2 ratio); higher = more soluble. The settings on record: cell cycle stage: G1/S.
Series [2] has as its system HeLa Kyoto. As to the kind of experiment: melting temperature (median over replicates), in situ; higher = more thermally stable.
Series [3] has as its system HeLa Kyoto. As to the kind of experiment: solubility change mitosis vs G1/S (difference of NP-40 vs SDS log2 ratios) (log2 ratio difference); higher = more soluble in mitosis.
Series [4] deals with HeLa Kyoto. The series can be described thus: thermal stability score vs G1/S (z-score of summed log2 fold changes over temperatures); higher = more thermally stable than in G1/S.
[5] abbreviates: cell cycle stage: early G1 (4.5 h after nocodazole release).
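Wherever melting temperature (median over replicates), in situ is given: HeLa Kyoto cells synchronized by double thymidine or nocodazole block, proteins quantified by TMT10plex mass spectrometry, three independent biological replicates.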
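Wherever solubility change mitosis vs G1/S (difference of NP-40 vs SDS log2 ratios) is given: synchronized HeLa Kyoto cells (double thymidine block for G1/S, nocodazole release for mitosis), protein amounts in NP-40 versus SDS lysates quantified by mass spectrometry, three biological replicates.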
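Wherever solubility in G1/S (NP-40 vs SDS abundance) is given: HeLa Kyoto cells arrested at G1/S by double thymidine block, proteins quantified by TMT10plex mass spectrometry in mild NP-40 versus SDS extracts, three biological replicates.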
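Wherever thermal stability score vs G1/S (z-score of summed log2 fold changes over temperatures) is given: synchronized HeLa Kyoto cells, proteins quantified by TMT10plex mass spectrometry, three biological replicates, mitosis taken 0.5 h after nocodazole release, G1/S directly after double thymidine block.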

On to “MAKTVAYFYDPDVGNFHYGAGHPMKPHRLALTHSLVLHYGLYKKMIVFKPYQASQHDMCRFHSEDYIDFLQRVSPTNMQGFTKSLNAFNVGDDCPVFPGLFEFCSRYTGASLQGATQLNNKICDIAINWAGGLHHAKKFEASGFCYVNDIVIGILELLKYHPRVLYIDIDIHHGDGVQEAFYLTDRVMTVSFHKYGNYFFPGTGDMYEVGAESGRYYCLNVPLRDGIDDQSYKHLFQPVINQVVDFYQPTCIVLQCGADSLGCDRLGCFNLSIRGHGECVEYVKSFNIPLLVLGGGGYTVRNVARCWTYETSLLVEEAISEELPYSEYFEYFAPDFTLHPDVSTRIENQNSRQYLDQIRQTIFENLKMLNHAPSVQIHDVPADLLTYDRTDEADAEERGPEENYSRPEAPNEFYDGDHDNDKESDVEI [HDAC3]”, for which the “solubility in G1/S (log2)” value in series [1] is -0.055. Also, the melting temperature in series [2] (cell cycle stage: mitosis) stood at 52.6 °C. Further, the “solubility change mitosis (log2)” value in series [3] was -0.161. For the same substance, the results for the thermal stability score in series [4] (setting [5]) and in series [4] (cell cycle stage: mitosis) were 1.43 and 1.96, respectively.

For the substance CTBP2, the “solubility in G1/S (log2)” value in series [1] amounted to 0.144. Moreover, the melting temperature turned out to be 55.3 °C in series [2] (cell cycle stage: G1/S) and 53.4 °C in series [2] (cell cycle stage: mitosis). In addition, the “solubility change mitosis (log2)” value in series [3] is -0.0285. Also, the thermal stability score was -2.44 in series [4] (setting [5]) and -6.63 in series [4] (cell cycle stage: mitosis).

With “MAALGPSSQNVTEYVVRVPKNTTKKYNIMAFNAADKVNFATWNQARLERDLSNKKIYQEEEMPESGAGSEFNRKLREEARRKKYGIVLKEFRPEDQPWLLRVNGKSGRKFKGIKKGGVTENTSYYIFTQCPDGAFEAFPVHNWYNFTPLARHRTLTAEEAEEEWERRNKVLNHFSIMQQRRLKDQDQDEDEEEKEKRGRRKASELRIHDLEDDLEMSSDASDASGEEGGRVPKAKKKAPLAKGGRKKKKKKGSDDEAFEDSDDGDFEGQEVDYMSDGSSSSQEEPESKAKAPQQEEGPKGVDEQSDSSEESEEEKPPEEDKEEEEEKKAPTPQEKKRRKDSSEESDSSEESDIDSEASSALFMAKKKTPPKRERKPSGGSSRGNSRPGTPSAEGGSTSSTLRAAASKLEQGKRVSEMPAAKRLRLDTGPQSLSGKSTPQPPSGKTTPNSGDVQVTEDAVRRYLTRKPMTTKDLLKKFQTKKTGLSSEQTVNVLAQILKRLNPERKMINDKMHFSLKE [GTF2F1]”, in series [1], the “solubility in G1/S (log2)” value was 0.237. For the same substance, the melting temperature in series [2] (cell cycle stage: G1/S) came to 52.7 °C; in series [2] (cell cycle stage: mitosis), 53.3 °C. Besides, the “solubility change mitosis (log2)” value in series [3] turned out to be 0.126. The thermal stability score in series [4] (setting [5]) was -0.52; in series [4] (cell cycle stage: mitosis), -1.74.

Regarding “MAKVSELYDVTWEEMRDKMRKWREENSRNSEQIVEVGEELINEYASKLGDDIWIIYEQVMIAALDYGRDDLALFCLQELRRQFPGSHRVKRLTGMRFEAMERYDDAIQLYDRILQEDPTNTAARKRKIAIRKAQGKNVEAIRELNEYLEQFVGDQEAWHELAELYINEHDYAKAAFCLEELMMTNPHNHLYCQQYAEVKYTQGGLENLELSRKYFAQALKLNNRNMRALFGLYMSASHIASNPKASAKTKKDNMKYASWAASQINRAYQFAGRSKKETKYSLKAVEDMLETLQITQS [EMC2]”, the “solubility in G1/S (log2)” value in series [1] stood at 0.188. The melting temperature is 53.8 °C in series [2] (cell cycle stage: G1/S) and 53.9 °C in series [2] (cell cycle stage: mitosis). Moreover, the “solubility change mitosis (log2)” value in series [3] turned out to be 0.0699. Further, the thermal stability score was -1.21 in series [4] (setting [5]) and -1.88 in series [4] (cell cycle stage: mitosis).

For the substance “MGRCCFYTAGTLSLLLLVTSVTLLVARVFQKAVDQSIEKKIVLRNGTEAFDSWEKPPLPVYTQFYFFNVTNPEEILRGETPRVEEVGPYTYRELRNKANIQFGDNGTTISAVSNKAYVFERDQSVGDPKIDLIRTLNIPVLTVIEWSQVHFLREIIEAMLKAYQQKLFVTHTVDELLWGYKDEILSLIHVFRPDISPYFGLFYEKNGTNDGDYVFLTGEDSYLNFTKIVEWNGKTSLDWWITDKCNMINGTDGDSFHPLITKDEVLYVFPSDFCRSVYITFSDYESVQGLPAFRYKVPAEILANTSDNAGFCIPEGNCLGSGVLNVSICKNGAPIIMSFPHFYQADERFVSAIEGMHPNQEDHETFVDINPLTGIILKAAKRFQINIYVKKLDDFVETGDIRTMVFPVMYLNESVHIDKETASRLKSMINTTLIITNIPYIIMALGVFFGLVFTWLACKGQGSMDEGTADERAPLIRT [SCARB2]”, the “solubility in G1/S (log2)” value in series [1] was found to be 0.3. In addition, the values for the melting temperature in series [2] (cell cycle stage: G1/S) and in series [2] (cell cycle stage: mitosis) were 58.5 °C and 60.2 °C, respectively. Also, the “solubility change mitosis (log2)” value in series [3] is -0.119. Besides, the thermal stability score is -2.37 in series [4] (setting [5]) and -3.51 in series [4] (cell cycle stage: mitosis).

As for “MAACTARRALAVGSRWWSRSLTGARWPRPLCAAAGAGAFSPASTTTTRRHLSSRNRPEGKVLETVGVFEVPKQNGKYETGQLFLHSIFGYRGVVLFPWQARLYDRDVASAAPEKAENPAGHGSKEVKGKTHTYYQVLIDARDCPHISQRSQTEAVTFLANHDDSRALYAIPGLDYVSHEDILPYTSTDQVPIQHELFERFLLYDQTKAPPFVARETLRAWQEKNHPWLELSDVHRETTENIRVTVIPFYMGMREAQNSHVYWWRYCIRLENLDSDVVQLRERHWRIFSLSGTLETVRGRGVVGREPVLSKEQPAFQYSSHVSLQASSGHMWGTFRFERPDGSHFDVRIPPFSLESNKDEKTPPSGLHW [POLDIP2]”, in series [1], the “solubility in G1/S (log2)” value worked out at 0.07. The melting temperature was determined as 50.9 °C in series [2] (cell cycle stage: G1/S) and 51.4 °C in series [2] (cell cycle stage: mitosis). Also, the “solubility change mitosis (log2)” value in series [3] is -0.0327. Also, the thermal stability score in series [4] (setting [5]) is 0.146; in series [4] (cell cycle stage: mitosis) it was -0.814.

Consider HADHA, for which, in series [1], the “solubility in G1/S (log2)” value amounted to 0.196. For the same substance, the melting temperature in series [2] (cell cycle stage: G1/S) worked out at 50.8 °C; in series [2] (cell cycle stage: mitosis) it was 50.9 °C. The “solubility change mitosis (log2)” value in series [3] was -0.133. For the same substance, the thermal stability score in series [4] (setting [5]) was -1.31; in series [4] (cell cycle stage: mitosis), 0.108.
